Results: US20260242735A1 (UNIVERSIT T BASEL, published 2026)

B1: Refmab #6 (antibody, V domains shown)
VH: QVQLQQPGAEVVKPGASVKMSCKASGYTFTSYYIHWIKQTPGQGLEWVGVIYPGNDDISYNQKFQGKATLTADKSSTTAYMQLSSLTSEDSAVYYCAREVRLRYFDVWGQGTTVTVSS
VL: EIVLTQSPGSLAVSPGERVTMSCKSSQSVFFSSSQKNYLAWYQQIPGQSPRLLIYWASTRESGVPDRFTGSGSGTDFTLTISSVQPEDLAIYYCHQYLSSRTFGQGTKLEIK
notes: Full-length format is human IgG1 Fc silent (PG-LALA); also made as Fab; The alanine scan used IgG or Fab
B2: Refmab #6 (antibody, V domains shown)
VH: B1 VH
VL: B1 VL
notes: The alanine scan used IgG or Fab
B3: Refmab #5 (antibody, V domains shown)
VH: QVQLVQSGAEVKKPGASVKVSCKASGYTFTNYDINWVRQAPGQGLEWIGWIYPGDGSTKYNEKFKAKATLTADTSTSTAYMELRSLRSDDTAVYYCASGYEDAMDYWGQGTTVTVSS
VL: DIQMTQSPSSLSASVGDRVTINCKASQDINSYLSWFQQKPGKAPKTLIYRANRLVDGVPSRFSGSGSGQDYTLTISSLQPEDFATYYCLQYDEFPLTFGGGTKVEIK
notes: as for B1
B4: Refmab #5 (antibody, V domains shown)
VH: B3 VH
VL: B3 VL
notes: as for B2

Key:
Experiment in all cases: alanine scan, flow cytometry, HEK293-T;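 further: antibody binding to each alanine-substituted CD33 mutant expressed transiently in HEK293-T, read as fluorescence minus background, mean of duplicates, relative to wild-type CD33 set as 100%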
human CD33 K77A = human CD33 K77A (human, UniProt P20138 18-364)
Chain of human CD33 K77A (P20138 18-364 K77A limits assumed): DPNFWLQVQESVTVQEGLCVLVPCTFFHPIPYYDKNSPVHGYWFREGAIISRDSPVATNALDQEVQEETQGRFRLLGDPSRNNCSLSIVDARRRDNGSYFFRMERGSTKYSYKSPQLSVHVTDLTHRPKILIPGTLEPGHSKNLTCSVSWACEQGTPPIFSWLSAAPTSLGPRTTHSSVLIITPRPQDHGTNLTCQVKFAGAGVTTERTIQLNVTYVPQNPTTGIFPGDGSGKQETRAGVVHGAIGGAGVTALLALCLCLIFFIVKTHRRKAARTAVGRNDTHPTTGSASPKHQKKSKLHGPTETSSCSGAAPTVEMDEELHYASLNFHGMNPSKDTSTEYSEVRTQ

human CD33 P72A = human CD33 P72A (human, UniProt P20138 18-364)
Chain of human CD33 P72A (P20138 18-364 P72A limits assumed): as the sequence (P20138 18-364 K77A limits assumed) above, with P55A, A60K counted along it

human CD33 D112A = human CD33 D112A (human, UniProt P20138 18-364)
Chain of human CD33 D112A (P20138 18-364 D112A limits assumed): as the sequence (P20138 18-364 K77A limits assumed) above, with A60K, D95A counted along it

human CD33 L103A = human CD33 L103A (human, UniProt P20138 18-364)
Chain of human CD33 L103A (P20138 18-364 L103A limits assumed): as the sequence (P20138 18-364 K77A limits assumed) above, with A60K, L86A counted along it

human CD33 F61A = human CD33 F61A (human, UniProt P20138 18-364)
Chain of human CD33 F61A (P20138 18-364 F61A limits assumed): as the sequence (P20138 18-364 K77A limits assumed) above, with F44A, A60K counted along it

human CD33 A108S = human CD33 A108S (human, UniProt P20138 18-364)
Chain of human CD33 A108S (P20138 18-364 A108S limits assumed): as the sequence (P20138 18-364 K77A limits assumed) above, with A60K, A91S counted along it

human CD33 H57A = human CD33 H57A (human, UniProt P20138 18-364)
Chain of human CD33 H57A (P20138 18-364 H57A limits assumed): as the sequence (P20138 18-364 K77A limits assumed) above, with H40A, A60K counted along it

human CD33 Q80A = human CD33 Q80A (human, UniProt P20138 18-364)
Chain of human CD33 Q80A (P20138 18-364 Q80A limits assumed): as the sequence (P20138 18-364 K77A limits assumed) above, with A60K, Q63A counted along it

human CD33 R89A = human CD33 R89A (human, UniProt P20138 18-364)
Chain of human CD33 R89A (P20138 18-364 R89A limits assumed): as the sequence (P20138 18-364 K77A limits assumed) above, with A60K, R72A counted along it

human CD33 C101A = human CD33 C101A (human, UniProt P20138 18-364)
Chain of human CD33 C101A (P20138 18-364 C101A limits assumed): as the sequence (P20138 18-364 K77A limits assumed) above, with A60K, C84A counted along it

human CD33 G94A = human CD33 G94A (human, UniProt P20138 18-364)
Chain of human CD33 G94A (P20138 18-364 G94A limits assumed): as the sequence (P20138 18-364 K77A limits assumed) above, with A60K, G77A counted along it

human CD33 E81A = human CD33 E81A (human, UniProt P20138 18-364)
Chain of human CD33 E81A (P20138 18-364 E81A limits assumed): as the sequence (P20138 18-364 K77A limits assumed) above, with A60K, E64A counted along it

human CD33 T86A = human CD33 T86A (human, UniProt P20138 18-364)
Chain of human CD33 T86A (P20138 18-364 T86A limits assumed): as the sequence (P20138 18-364 K77A limits assumed) above, with A60K, T69A counted along it

human CD33 S104A = human CD33 S104A (human, UniProt P20138 18-364)
Chain of human CD33 S104A (P20138 18-364 S104A limits assumed): as the sequence (P20138 18-364 K77A limits assumed) above, with A60K, S87A counted along it

human CD33 P55A = human CD33 P55A (human, UniProt P20138 18-364)
Chain of human CD33 P55A (P20138 18-364 P55A limits assumed): as the sequence (P20138 18-364 K77A limits assumed) above, with P38A, A60K counted along it

human CD33 D70A = human CD33 D70A (human, UniProt P20138 18-364)
Chain of human CD33 D70A (P20138 18-364 D70A limits assumed): as the sequence (P20138 18-364 K77A limits assumed) above, with D53A, A60K counted along it

human CD33 V56A = human CD33 V56A (human, UniProt P20138 18-364)
Chain of human CD33 V56A (P20138 18-364 V56A limits assumed): as the sequence (P20138 18-364 K77A limits assumed) above, with V39A, A60K counted along it

human CD33 S54A = human CD33 S54A (human, UniProt P20138 18-364)
Chain of human CD33 S54A (P20138 18-364 S54A limits assumed): as the sequence (P20138 18-364 K77A limits assumed) above, with S37A, A60K counted along it

human CD33 H137A = target: T1, human CD33 H137A (human, UniProt P20138 18-364)
T1 construct: alanine scan clone, transfected HEK293-T
T1 sequence (P20138 18-364 H137A limits assumed): as the sequence (P20138 18-364 K77A limits assumed) above, with A60K, H120A counted along it

human CD33 S164A = target: T2, human CD33 S164A (human, UniProt P20138 18-364)
T2 construct: alanine scan clone, transfected HEK293-T
T2 sequence (P20138 18-364 S164A limits assumed): as the sequence (P20138 18-364 K77A limits assumed) above, with A60K, S147A counted along it

human CD33 T192A = target: T3, human CD33 T192A (human, UniProt P20138 18-364)
T3 construct: alanine scan clone, transfected HEK293-T
T3 sequence (P20138 18-364 T192A limits assumed): as the sequence (P20138 18-364 K77A limits assumed) above, with A60K, T175A counted along it

human CD33 R190A = target: T4, human CD33 R190A (human, UniProt P20138 18-364)
T4 construct: alanine scan clone, transfected HEK293-T
T4 sequence (P20138 18-364 R190A limits assumed): as the sequence (P20138 18-364 K77A limits assumed) above, with A60K, R173A counted along it

human CD33 K126A = target: T5, human CD33 K126A (human, UniProt P20138 18-364)
T5 construct: alanine scan clone, transfected HEK293-T
T5 sequence (P20138 18-364 K126A limits assumed): as the sequence (P20138 18-364 K77A limits assumed) above, with A60K, K109A counted along it

human CD33 N160A = target: T6, human CD33 N160A (human, UniProt P20138 18-364)
T6 construct: alanine scan clone, transfected HEK293-T
T6 sequence (P20138 18-364 N160A limits assumed): as the sequence (P20138 18-364 K77A limits assumed) above, with A60K, N143A counted along it

human CD33 P132A = target: T7, human CD33 P132A (human, UniProt P20138 18-364)
T7 construct: alanine scan clone, transfected HEK293-T
T7 sequence (P20138 18-364 P132A limits assumed): as the sequence (P20138 18-364 K77A limits assumed) above, with A60K, P115A counted along it

human CD33 S178A = target: T8, human CD33 S178A (human, UniProt P20138 18-364)
T8 construct: alanine scan clone, transfected HEK293-T
T8 sequence (P20138 18-364 S178A limits assumed): as the sequence (P20138 18-364 K77A limits assumed) above, with A60K, S161A counted along it

human CD33 P184A = target: T9, human CD33 P184A (human, UniProt P20138 18-364)
T9 construct: alanine scan clone, transfected HEK293-T
T9 sequence (P20138 18-364 P184A limits assumed): as the sequence (P20138 18-364 K77A limits assumed) above, with A60K, P167A counted along it

human CD33 T162A = target: T10, human CD33 T162A (human, UniProt P20138 18-364)
T10 construct: alanine scan clone, transfected HEK293-T
T10 sequence (P20138 18-364 T162A limits assumed): as the sequence (P20138 18-364 K77A limits assumed) above, with A60K, T145A counted along it

human CD33 S128A = target: T11, human CD33 S128A (human, UniProt P20138 18-364)
T11 construct: alanine scan clone, transfected HEK293-T
T11 sequence (P20138 18-364 S128A limits assumed): as the sequence (P20138 18-364 K77A limits assumed) above, with A60K, S111A counted along it

human CD33 G151A = target: T12, human CD33 G151A (human, UniProt P20138 18-364)
T12 construct: alanine scan clone, transfected HEK293-T
T12 sequence (P20138 18-364 G151A limits assumed): as the sequence (P20138 18-364 K77A limits assumed) above, with A60K, G134A counted along it

human CD33 V136A = target: T13, human CD33 V136A (human, UniProt P20138 18-364)
T13 construct: alanine scan clone, transfected HEK293-T
T13 sequence (P20138 18-364 V136A limits assumed): as the sequence (P20138 18-364 K77A limits assumed) above, with A60K, V119A counted along it

human CD33 E154A = target: T14, human CD33 E154A (human, UniProt P20138 18-364)
T14 construct: alanine scan clone, transfected HEK293-T
T14 sequence (P20138 18-364 E154A limits assumed): as the sequence (P20138 18-364 K77A limits assumed) above, with A60K, E137A counted along it

human CD33 S181A = target: T15, human CD33 S181A (human, UniProt P20138 18-364)
T15 construct: alanine scan clone, transfected HEK293-T
T15 sequence (P20138 18-364 S181A limits assumed): as the sequence (P20138 18-364 K77A limits assumed) above, with A60K, S164A counted along it

human CD33 G156A = target: T16, human CD33 G156A (human, UniProt P20138 18-364)
T16 construct: alanine scan clone, transfected HEK293-T
T16 sequence (P20138 18-364 G156A limits assumed): as the sequence (P20138 18-364 K77A limits assumed) above, with A60K, G139A counted along it

human CD33 V165A = target: T17, human CD33 V165A (human, UniProt P20138 18-364)
T17 construct: alanine scan clone, transfected HEK293-T
T17 sequence (P20138 18-364 V165A limits assumed): as the sequence (P20138 18-364 K77A limits assumed) above, with A60K, V148A counted along it

human CD33 T125A = target: T18, human CD33 T125A (human, UniProt P20138 18-364)
T18 construct: alanine scan clone, transfected HEK293-T
T18 sequence (P20138 18-364 T125A limits assumed): as the sequence (P20138 18-364 K77A limits assumed) above, with A60K, T108A counted along it

| Binder | Mean % WT Binding (human CD33 K77A) | Mean % WT Binding (human CD33 P72A) | Mean % WT Binding (human CD33 D112A) | Mean % WT Binding (human CD33 L103A) | Mean % WT Binding (human CD33 F61A) | Mean % WT Binding (human CD33 A108S) | Mean % WT Binding (human CD33 H57A) | Mean % WT Binding (human CD33 Q80A) | Mean % WT Binding (human CD33 R89A) | Mean % WT Binding (human CD33 C101A) | Mean % WT Binding (human CD33 G94A) | Mean % WT Binding (human CD33 E81A) | Mean % WT Binding (human CD33 T86A) | Mean % WT Binding (human CD33 S104A) | Mean % WT Binding (human CD33 P55A) | Mean % WT Binding (human CD33 D70A) | Mean % WT Binding (human CD33 V56A) | Mean % WT Binding (human CD33 S54A) | Mean % WT Binding (human CD33 H137A) | Mean % WT Binding (human CD33 S164A) | also measured |
| --- | --- | --- | --- | --- | --- | --- | --- | --- | --- | --- | --- | --- | --- | --- | --- | --- | --- | --- | --- | --- | --- |
| B1 | 79.9 % WT binding | 92.3 % WT binding | 51.6 % WT binding | 61.5 % WT binding | 111 % WT binding | 78.4 % WT binding | 63 % WT binding | 102 % WT binding | 80.8 % WT binding | 6.2 % WT binding | 93.1 % WT binding | 88.1 % WT binding | 80.1 % WT binding | 90.9 % WT binding | 101 % WT binding | 80.3 % WT binding | 113 % WT binding | 83.6 % WT binding | – | – | – |
| B2 | – | – | – | – | – | – | – | – | – | – | – | – | – | – | – | – | – | – | 117 % WT binding | 100 % WT binding | Mean % WT Binding (human CD33 T192A): 99 % WT binding; Mean % WT Binding (human CD33 R190A): 112 % WT binding; Mean % WT Binding (human CD33 K126A): 134 % WT binding; Mean % WT Binding (human CD33 N160A): 106 % WT binding; Mean % WT Binding (human CD33 P132A): 3.6 % WT binding; Mean % WT Binding (human CD33 S178A): 102 % WT binding; Mean % WT Binding (human CD33 P184A): 92.2 % WT binding; Mean % WT Binding (human CD33 T162A): 87.2 % WT binding; Mean % WT Binding (human CD33 S128A): 127 % WT binding; Mean % WT Binding (human CD33 G151A): 91.1 % WT binding; Mean % WT Binding (human CD33 V136A): 65.8 % WT binding; Mean % WT Binding (human CD33 E154A): 86.2 % WT binding; Mean % WT Binding (human CD33 S181A): 102 % WT binding; Mean % WT Binding (human CD33 G156A): 88.1 % WT binding; Mean % WT Binding (human CD33 V165A): 101 % WT binding; Mean % WT Binding (human CD33 T125A): 112 % WT binding |
| B3 | 124 % WT binding | 116 % WT binding | 61.2 % WT binding | 91.6 % WT binding | 161 % WT binding | 105 % WT binding | 121 % WT binding | 151 % WT binding | 137 % WT binding | 23 % WT binding | 92.2 % WT binding | 140 % WT binding | 124 % WT binding | 109 % WT binding | 118 % WT binding | 112 % WT binding | 93 % WT binding | 146 % WT binding | – | – | – |
| B4 | – | – | – | – | – | – | – | – | – | – | – | – | – | – | – | – | – | – | 120 % WT binding | 110 % WT binding | Mean % WT Binding (human CD33 T192A): 109 % WT binding; Mean % WT Binding (human CD33 R190A): 112 % WT binding; Mean % WT Binding (human CD33 K126A): 134 % WT binding; Mean % WT Binding (human CD33 N160A): 110 % WT binding; Mean % WT Binding (human CD33 P132A): 97.3 % WT binding; Mean % WT Binding (human CD33 S178A): 117 % WT binding; Mean % WT Binding (human CD33 P184A): 107 % WT binding; Mean % WT Binding (human CD33 T162A): 92.4 % WT binding; Mean % WT Binding (human CD33 S128A): 283 % WT binding; Mean % WT Binding (human CD33 G151A): 99.6 % WT binding; Mean % WT Binding (human CD33 V136A): 104 % WT binding; Mean % WT Binding (human CD33 E154A): 112 % WT binding; Mean % WT Binding (human CD33 S181A): 128 % WT binding; Mean % WT Binding (human CD33 G156A): 92.3 % WT binding; Mean % WT Binding (human CD33 V165A): 174 % WT binding; Mean % WT Binding (human CD33 T125A): 56.7 % WT binding |
